Results on 1 molecule are retold here after US20260184748A1 (University of Pennsylvania, published 2026).

Targets include P2RY12 (UniProt Q9H244 1-342); LTB4R (UniProt Q15722 1-352); CHRM3 (UniProt P20309 1-590); P2RY6 (UniProt Q15077 1-328); FFAR1 (UniProt O14842 1-300); SSTR2 (UniProt P30874 1-369); KISS1R (UniProt Q969F8 1-398); PROKR1 (UniProt Q8TCW9 1-393); HRH1 (UniProt P35367 1-487); GHSR (UniProt Q92847 1-366); EDG3 (UniProt Q99500 1-378); GPR109A (UniProt Q8TDS4 1-363); DRD1 (UniProt P21728 1-446); CXCR4 (UniProt P61073 1-352); HRH4 (UniProt Q9H3N8 1-390); HTR1B (UniProt P28222 1-390).

Assay in all cases: cell-based or functional assay
Another test deals with T1, CCR4 (UniProt P51679 1-360).
T1 sequence (looked up): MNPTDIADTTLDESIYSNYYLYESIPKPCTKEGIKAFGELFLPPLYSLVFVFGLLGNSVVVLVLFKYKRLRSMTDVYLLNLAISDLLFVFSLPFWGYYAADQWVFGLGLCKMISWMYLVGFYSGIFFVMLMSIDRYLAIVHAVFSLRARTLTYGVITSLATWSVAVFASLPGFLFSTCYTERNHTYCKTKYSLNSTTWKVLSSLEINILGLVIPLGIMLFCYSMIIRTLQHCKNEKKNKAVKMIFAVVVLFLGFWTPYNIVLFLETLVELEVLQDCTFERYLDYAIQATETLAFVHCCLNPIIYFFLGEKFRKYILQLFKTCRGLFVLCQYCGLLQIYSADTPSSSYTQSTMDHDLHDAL

The target in a further test is T2, CCR3 (UniProt P51677 1-355).
T2 sequence (looked up): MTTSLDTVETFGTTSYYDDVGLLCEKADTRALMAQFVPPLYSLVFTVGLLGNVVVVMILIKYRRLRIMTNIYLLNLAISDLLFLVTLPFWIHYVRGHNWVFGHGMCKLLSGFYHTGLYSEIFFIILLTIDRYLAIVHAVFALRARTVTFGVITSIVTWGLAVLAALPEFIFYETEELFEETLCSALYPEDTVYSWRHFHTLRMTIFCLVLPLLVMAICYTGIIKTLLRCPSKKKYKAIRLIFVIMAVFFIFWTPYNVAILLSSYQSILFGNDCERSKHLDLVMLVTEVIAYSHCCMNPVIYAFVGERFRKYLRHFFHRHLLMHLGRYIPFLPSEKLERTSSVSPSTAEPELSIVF

A further test concerns the target T3, EDNRB (UniProt P24530 27-442).
T3 sequence (looked up): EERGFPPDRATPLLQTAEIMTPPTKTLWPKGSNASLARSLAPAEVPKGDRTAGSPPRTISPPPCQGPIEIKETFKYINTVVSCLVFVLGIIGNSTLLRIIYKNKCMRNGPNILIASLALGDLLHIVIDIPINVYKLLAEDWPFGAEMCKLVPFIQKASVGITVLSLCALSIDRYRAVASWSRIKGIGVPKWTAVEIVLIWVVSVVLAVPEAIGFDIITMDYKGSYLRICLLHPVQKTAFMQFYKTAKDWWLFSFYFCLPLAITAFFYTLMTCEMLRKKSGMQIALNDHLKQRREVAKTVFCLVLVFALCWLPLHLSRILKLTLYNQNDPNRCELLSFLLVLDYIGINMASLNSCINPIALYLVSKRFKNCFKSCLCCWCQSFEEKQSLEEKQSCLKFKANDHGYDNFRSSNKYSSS

Another test concerns the target T4, GPR119 (UniProt Q8TDV5 1-335).
T4 sequence (looked up): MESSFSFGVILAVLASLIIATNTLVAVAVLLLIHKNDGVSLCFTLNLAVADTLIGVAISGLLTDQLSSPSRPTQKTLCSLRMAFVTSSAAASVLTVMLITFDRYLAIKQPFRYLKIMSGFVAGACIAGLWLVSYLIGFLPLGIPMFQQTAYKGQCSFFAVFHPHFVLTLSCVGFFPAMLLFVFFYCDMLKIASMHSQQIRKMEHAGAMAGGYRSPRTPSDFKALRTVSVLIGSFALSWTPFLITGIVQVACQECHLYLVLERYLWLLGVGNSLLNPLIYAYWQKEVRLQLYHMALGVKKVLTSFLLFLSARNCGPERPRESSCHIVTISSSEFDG

The target of a further test is T5, BDKRB2 (UniProt P30411 1-391, limits assumed).
T5 sequence (looked up): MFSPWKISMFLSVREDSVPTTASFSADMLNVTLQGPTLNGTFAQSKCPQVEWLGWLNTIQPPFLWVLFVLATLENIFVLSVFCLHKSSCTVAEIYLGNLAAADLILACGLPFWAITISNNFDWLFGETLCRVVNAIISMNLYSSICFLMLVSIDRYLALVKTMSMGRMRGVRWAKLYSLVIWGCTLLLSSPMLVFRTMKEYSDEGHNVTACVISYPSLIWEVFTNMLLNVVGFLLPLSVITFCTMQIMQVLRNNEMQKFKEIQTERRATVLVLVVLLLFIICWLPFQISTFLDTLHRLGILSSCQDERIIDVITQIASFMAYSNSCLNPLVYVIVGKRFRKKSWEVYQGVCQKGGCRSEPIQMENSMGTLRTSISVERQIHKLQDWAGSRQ

Where no end group is shown, it is not given here.

Chain of GHSR (Q92847 whole entry): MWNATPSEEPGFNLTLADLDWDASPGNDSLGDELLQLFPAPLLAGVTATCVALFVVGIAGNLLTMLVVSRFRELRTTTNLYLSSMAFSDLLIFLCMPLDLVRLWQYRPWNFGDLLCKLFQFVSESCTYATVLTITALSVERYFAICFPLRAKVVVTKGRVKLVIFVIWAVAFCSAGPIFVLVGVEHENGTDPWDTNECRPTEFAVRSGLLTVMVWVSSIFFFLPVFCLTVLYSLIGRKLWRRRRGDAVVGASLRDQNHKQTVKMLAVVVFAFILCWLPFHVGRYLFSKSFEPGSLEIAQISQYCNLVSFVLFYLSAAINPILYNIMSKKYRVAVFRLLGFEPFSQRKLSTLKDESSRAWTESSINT
Chain of KISS1R (Q969F8 whole entry): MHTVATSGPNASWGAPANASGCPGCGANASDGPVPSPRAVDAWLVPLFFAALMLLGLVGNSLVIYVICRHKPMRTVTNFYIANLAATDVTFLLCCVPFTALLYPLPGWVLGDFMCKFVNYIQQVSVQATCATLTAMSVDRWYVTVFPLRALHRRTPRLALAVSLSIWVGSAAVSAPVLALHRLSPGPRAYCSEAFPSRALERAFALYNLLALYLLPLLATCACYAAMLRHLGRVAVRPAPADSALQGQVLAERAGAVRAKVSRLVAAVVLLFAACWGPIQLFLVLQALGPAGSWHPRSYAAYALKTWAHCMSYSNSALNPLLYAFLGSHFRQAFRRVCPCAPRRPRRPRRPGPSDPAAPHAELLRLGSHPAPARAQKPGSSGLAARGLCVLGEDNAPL
Chain of CXCR4 (P61073 whole entry): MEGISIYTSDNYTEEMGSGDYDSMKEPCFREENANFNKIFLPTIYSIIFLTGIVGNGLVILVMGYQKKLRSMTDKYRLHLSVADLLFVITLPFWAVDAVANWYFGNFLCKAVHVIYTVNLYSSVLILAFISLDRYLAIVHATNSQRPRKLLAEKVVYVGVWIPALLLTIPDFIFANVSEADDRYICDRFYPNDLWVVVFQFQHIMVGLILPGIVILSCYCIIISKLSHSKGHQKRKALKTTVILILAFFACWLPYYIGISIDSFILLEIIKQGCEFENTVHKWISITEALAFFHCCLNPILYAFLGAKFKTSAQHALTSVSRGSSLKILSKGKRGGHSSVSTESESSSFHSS
Chain of DRD1 (P21728 whole entry): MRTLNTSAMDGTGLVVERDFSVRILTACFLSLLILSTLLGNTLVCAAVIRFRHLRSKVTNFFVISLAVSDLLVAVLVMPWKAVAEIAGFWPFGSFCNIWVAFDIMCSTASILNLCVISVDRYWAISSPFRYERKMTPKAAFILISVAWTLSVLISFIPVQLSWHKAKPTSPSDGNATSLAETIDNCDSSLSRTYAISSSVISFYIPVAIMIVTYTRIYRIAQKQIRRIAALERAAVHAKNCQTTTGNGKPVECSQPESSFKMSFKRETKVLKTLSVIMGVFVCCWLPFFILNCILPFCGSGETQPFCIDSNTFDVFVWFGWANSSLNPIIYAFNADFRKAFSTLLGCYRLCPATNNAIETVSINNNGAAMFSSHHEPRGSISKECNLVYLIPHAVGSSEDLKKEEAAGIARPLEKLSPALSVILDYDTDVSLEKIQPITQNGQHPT
Chain of FFAR1 (O14842 whole entry): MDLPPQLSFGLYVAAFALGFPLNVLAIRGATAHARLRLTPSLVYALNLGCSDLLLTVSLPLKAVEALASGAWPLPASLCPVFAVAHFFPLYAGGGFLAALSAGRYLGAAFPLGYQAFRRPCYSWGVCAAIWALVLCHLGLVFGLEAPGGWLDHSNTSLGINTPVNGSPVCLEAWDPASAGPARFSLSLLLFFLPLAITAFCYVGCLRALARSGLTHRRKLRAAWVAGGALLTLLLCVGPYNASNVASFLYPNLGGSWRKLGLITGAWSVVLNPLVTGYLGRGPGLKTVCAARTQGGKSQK
Chain of LTB4R (Q15722 whole entry): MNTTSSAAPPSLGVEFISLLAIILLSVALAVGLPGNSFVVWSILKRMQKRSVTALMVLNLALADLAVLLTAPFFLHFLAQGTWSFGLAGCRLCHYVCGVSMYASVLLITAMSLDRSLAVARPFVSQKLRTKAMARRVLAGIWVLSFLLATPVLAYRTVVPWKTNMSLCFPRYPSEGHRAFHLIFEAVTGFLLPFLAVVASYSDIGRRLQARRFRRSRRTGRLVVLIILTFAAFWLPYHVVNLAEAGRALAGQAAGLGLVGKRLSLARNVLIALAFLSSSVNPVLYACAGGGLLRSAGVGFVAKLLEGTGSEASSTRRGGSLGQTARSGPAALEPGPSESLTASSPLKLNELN
Chain of PROKR1 (Q8TCW9 whole entry): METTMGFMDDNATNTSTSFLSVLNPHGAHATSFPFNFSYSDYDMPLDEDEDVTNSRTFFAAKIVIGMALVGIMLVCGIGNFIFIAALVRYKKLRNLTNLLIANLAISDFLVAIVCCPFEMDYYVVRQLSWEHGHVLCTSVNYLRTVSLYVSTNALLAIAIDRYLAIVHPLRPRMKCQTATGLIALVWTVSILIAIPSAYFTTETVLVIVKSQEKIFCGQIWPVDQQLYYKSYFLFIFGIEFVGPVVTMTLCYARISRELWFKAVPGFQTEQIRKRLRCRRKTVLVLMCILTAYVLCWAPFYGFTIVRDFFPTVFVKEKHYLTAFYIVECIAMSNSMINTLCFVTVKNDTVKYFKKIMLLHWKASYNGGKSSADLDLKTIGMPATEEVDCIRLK
Chain of HRH1 (P35367 whole entry): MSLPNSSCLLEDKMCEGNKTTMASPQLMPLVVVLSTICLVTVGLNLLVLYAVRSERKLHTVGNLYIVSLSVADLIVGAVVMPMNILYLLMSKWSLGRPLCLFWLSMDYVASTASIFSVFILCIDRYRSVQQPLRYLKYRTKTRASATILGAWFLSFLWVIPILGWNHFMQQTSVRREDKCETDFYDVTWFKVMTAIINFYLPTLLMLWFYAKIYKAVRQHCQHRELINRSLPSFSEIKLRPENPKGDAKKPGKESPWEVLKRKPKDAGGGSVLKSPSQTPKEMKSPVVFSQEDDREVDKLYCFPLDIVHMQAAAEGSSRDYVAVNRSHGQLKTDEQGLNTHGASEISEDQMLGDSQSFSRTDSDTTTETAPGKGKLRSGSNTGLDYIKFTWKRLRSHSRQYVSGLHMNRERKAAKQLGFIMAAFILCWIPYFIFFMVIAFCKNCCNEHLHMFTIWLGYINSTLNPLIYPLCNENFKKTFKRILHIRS
Chain of EDG3 (Q99500 whole entry): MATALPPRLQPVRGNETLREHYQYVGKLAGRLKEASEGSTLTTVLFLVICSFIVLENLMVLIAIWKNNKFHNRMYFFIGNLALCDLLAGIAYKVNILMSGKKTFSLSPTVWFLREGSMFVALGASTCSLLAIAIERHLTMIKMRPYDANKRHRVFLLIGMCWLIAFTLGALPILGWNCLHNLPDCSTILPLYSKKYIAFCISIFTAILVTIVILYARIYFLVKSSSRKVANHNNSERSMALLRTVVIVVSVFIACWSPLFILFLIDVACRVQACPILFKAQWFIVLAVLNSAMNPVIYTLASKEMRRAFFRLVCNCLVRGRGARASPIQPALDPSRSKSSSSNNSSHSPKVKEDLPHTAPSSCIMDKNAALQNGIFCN
Chain of P2RY6 (Q15077 whole entry): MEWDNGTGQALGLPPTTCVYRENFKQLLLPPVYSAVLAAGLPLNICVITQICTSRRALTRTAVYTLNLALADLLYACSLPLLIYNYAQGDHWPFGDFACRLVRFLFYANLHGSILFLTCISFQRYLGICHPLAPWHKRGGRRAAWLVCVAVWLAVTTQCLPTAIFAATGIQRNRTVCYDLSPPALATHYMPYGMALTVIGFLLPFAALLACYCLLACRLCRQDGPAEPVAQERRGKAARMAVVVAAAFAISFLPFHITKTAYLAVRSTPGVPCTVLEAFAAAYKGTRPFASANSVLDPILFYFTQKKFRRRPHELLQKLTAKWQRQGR
Chain of CHRM3 (P20309 whole entry): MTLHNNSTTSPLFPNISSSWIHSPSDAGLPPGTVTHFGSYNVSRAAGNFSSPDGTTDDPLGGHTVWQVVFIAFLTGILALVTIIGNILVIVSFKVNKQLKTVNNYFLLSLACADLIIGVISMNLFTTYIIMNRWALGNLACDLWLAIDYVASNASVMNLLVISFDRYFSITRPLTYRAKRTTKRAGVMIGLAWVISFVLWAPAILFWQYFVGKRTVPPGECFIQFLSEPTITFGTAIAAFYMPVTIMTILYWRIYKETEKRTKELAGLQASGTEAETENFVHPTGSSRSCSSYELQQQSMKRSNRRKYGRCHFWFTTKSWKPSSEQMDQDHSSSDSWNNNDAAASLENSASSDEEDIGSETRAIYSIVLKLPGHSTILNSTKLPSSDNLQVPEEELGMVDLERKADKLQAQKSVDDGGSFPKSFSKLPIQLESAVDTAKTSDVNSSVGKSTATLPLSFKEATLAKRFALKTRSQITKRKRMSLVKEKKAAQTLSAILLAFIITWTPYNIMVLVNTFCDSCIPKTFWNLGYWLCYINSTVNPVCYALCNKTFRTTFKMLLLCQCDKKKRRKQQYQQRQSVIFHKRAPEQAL
Chain of GPR109A (Q8TDS4 whole entry): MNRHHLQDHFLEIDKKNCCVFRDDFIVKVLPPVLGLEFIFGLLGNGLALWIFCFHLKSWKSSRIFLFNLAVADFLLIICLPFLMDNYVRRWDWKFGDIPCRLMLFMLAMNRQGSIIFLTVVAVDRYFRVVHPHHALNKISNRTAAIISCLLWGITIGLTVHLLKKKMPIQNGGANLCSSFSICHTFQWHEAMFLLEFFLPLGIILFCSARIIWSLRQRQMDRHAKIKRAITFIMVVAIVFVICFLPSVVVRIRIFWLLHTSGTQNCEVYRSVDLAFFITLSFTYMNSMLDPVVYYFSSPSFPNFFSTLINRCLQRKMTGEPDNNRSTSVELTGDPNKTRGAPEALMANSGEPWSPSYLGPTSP

B1: octadecaneuropeptide (ODN) (peptide)
peptide: QATVGDVNTDRPGLLDLK
modifications: also: synthesised on Rink amide resin, C-terminal amide not given here outright
B1: the “% Activity, arrestin, antagonist mode, 2.5 uM” value (“% Activity, arrestin” for short) with CCR4 is 1.3%; with P2RY12, -11%; in the test with CCR3 it was -5.8%; in the test with EDNRB, -9.9%; with LTB4R it was 10.3%; in the test with CHRM3 it was 12.6%. The “% Activity, arrestin” value was -1% with GPR119; -1.7% in the test with BDKRB2; -15.1% with P2RY6; -3.9% with FFAR1; -20.5% with SSTR2; 13.2% in the test with KISS1R. Also, the “% Activity, arrestin” value with PROKR1 was -12.4%; with HRH1 it was -38.5%; in the test with GHSR, -7.4%; with EDG3, 15.4%; with GPR109A, -16%; in the test with DRD1, 5.7%. The “% Activity, arrestin” value with CXCR4 is -28.5%; with HRH4, 5.2%; with HTR1B it was -11.9%.
